{"source": "patent US6207816", "key": {"[1]": {"biological_target": "T1, KGF (hKGF) (Homo sapiens) (UniProt P21781)", "T1 sequence": "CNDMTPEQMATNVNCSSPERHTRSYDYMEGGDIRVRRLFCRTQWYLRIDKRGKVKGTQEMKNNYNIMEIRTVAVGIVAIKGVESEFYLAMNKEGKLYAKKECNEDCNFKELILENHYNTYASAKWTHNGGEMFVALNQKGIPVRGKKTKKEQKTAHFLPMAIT", "test": "filter", "conditions": "2'-F pyrimidines"}, "[2]": {"biological_target": "T1, KGF (hKGF) (Homo sapiens)", "test": "competition", "conditions": "2'-F pyrimidines; for IC50: PC-3 assay"}}, "data": [{"sequence": "GGGAGGACGAUGCGGNGACUGAUUUUUCCUUGNBCAGUGUAAUUUCCUGGCUGCCCCAGACGACUCGCCCGA [38F]", "values": [{"measurement": "Kd", "setting": "[1]; DPBS, 37 C", "result": 0.33, "unit": "nM"}]}, {"sequence": "GGGAGGACGAUGCGGGGACAAWYAGCGGUGUCUUUUCAUUUNKAUCCUCCGACRUCCCAGACGACUCGCCCGA [56F]", "values": [{"measurement": "Kd", "setting": "[1]; biphasic, 32% high affinity, Kd2 3.00 nM", "result": 0.07, "unit": "nM"}]}, {"sequence": "GGGAGGACGAUGCGGNGACUGAUUUUUCCUUGNBCAGUGUAAUUUCCUGGCUGCCCCAGACGACUCGCCCGA [38F (K38F)]", "values": [{"measurement": "IC50", "setting": "[2]", "result": 0.6, "unit": "nM"}, {"measurement": "Ki", "setting": "[2]; PC-3 cells, 20 nM on NIH3T3/FGFR-2", "result": 0.22, "unit": "nM"}]}, {"sequence": "GGGAGGACGAUGCGGCAANNNNNNNCUCUCUCCUGGCGUUCCGCAACCCGCCCCCAGACGACUCGCCCGA [19F]", "values": [{"measurement": "Kd", "setting": "[1]; second column 0.94-2.57", "result": 1.5, "unit": "nM"}]}, {"sequence": "GGGAGGACGAUGCGGGGACAAWYAGCGGUGUCUUUUCAUUUNKAUCCUCCGACRUCCCAGACGACUCGCCCGA [56F (K56F)]", "values": [{"measurement": "IC50", "setting": "[2]", "result": 1, "unit": "nM"}]}, {"sequence": "GGGAGGACGAUGCGGGAAUUAACAGGGCCAGAAUUCUCAUCUNNCUUCCCGUGACCCAGACGACUCGCCCGA [12F]", "values": [{"measurement": "Kd", "setting": "[1]; DPBS, 37 C", "result": 1.38, "unit": "nM"}]}, {"sequence": "GGGAGGACGAUGCGGGAAUUCCCAGCGCUUGACUGAUACAAACNUUCCCGUGCCGCAGACGACUCGCCCGA [16F]", "values": [{"measurement": "Kd", "setting": "[1]; biphasic, high affinity 49%, Kd2 3.39 nM", "result": 0.83, "unit": "nM"}]}]}
